Test results from publication PMC8022203 (ACS infectious diseases, 2021).

Key:
[1] = tested on: CC(=O)Nc1ccc(/C=N/NC(N)=S)cc1; test: purified protein; settings: pH 8.0; 37.0 °C
[2] = tested on: CCN(CC)c1ccc2cc(-c3ccc(/C=N/NC(N)=S)s3)c(=O)oc2c1; test: purified protein; settings: pH 8.0; 37.0 °C

EthA (Mycobacterium tuberculosis H37Rv) was tested, and the Km [1] was 153 ± 11 µM and the Km [2] was 16 ± 2 µM.
